Source: US9512428B2, “Method of deriving mature hepatocytes from human embryonic stem cells” (Wisconsin Alumni Research Foundation, priority 2012, dated 2016)
Entries after “also recorded” stand apart in the source; their conditions may differ.

Tests used:
CYP1A2 = CYP1A2 induction by omeprazole in transduced hESC-derived hepatocytes (quantitative PCR); type: in vitro ADME, human
Description: Induction of this enzyme was also measured in HepG2 human hepatocytes and in fresh primary human hepatocytes. Expression was measured by quantitative PCR, and the expression levels are shown as GAPDH normalized gene expression values (RQ values or relative quantity values. Error bars indicate RQ min and RQ max values).
(RQ values or relative quantity values. Error bars indicate RQ min and RQ max values).
Omeprazole and rifampicin (also known as rifampin; Sigma) were added to DMEM at 100 μM and 10 μM respectively for 3 days. The resulting medium was analyzed by mass spectrometry. Metabolites of the tested drugs, omeprazole sulfone (Santa Cruz Biotechnology), 5-hydroxy omeprazole (Cachesyn), and desacetyl rifampicin (Santa Cruz Biotechnology) were dissolved in DMEM to prepare standard curves.

hESC derived hepatocytes [1] = assay: Rifampin metabolism to 25-des acetyl rifampin in hESC derived hepatocytes (LC-MS/MS); settings: hESC derived hepatocytes co-transduced with let-7c and mir-122, 72 hours incubation
[2] = system: hES cell-derived fetal hepatocytes; assay: QPCR of liver genes in hES cell-derived fetal hepatocytes after lentiviral transduction of mir-122; type: cell-based, human
Description: We next determined whether forced expression of mir-122 in the hES cell-derived fetal hepatocytes could program these cells to a more mature differentiated state. We expressed mir-122 in the fetal hepatocytes by lentiviral transduction. Using this method, we achieved ˜5% transduction efficiency (see FIG. 2 GFP positive cells).
These GFP positive cells were then FACS sorted, and RNA was isolated for QPCR measurements of functional genes.
H1 hES cells (J. A. Thomson et al., Science (1998) 282: 1145-1147) cultured in E8 medium (Chen et al., 2011 Nature Methods 8(5) 424-9) were differentiated to fetal hepatocytes lacking functional hepatic enzyme activity following a previously published protocol (see J. Cai et al., Hepatology (2007) 45: 1229-1239), with some modifications. Briefly, the hES cells at approximately 50% confluency were treated with 0.5 mg/ml Albumin fraction V (Sigma) and 100 ng/ml Activin A (Sigma) for 3 days. On the second day of treatment, 0.1% Insulin-transferrin-Selenium (Sigma) was added, and on the third day of treatment, 1.0% Insulin-transferrin-Selenium (Sigma) was added. From day four to day eight, the cells were treated with 30 ng/ml FGF4 (R&D Systems) along with 20 ng/ml BMP2. From days nine through thirteen, 20 ng/ml HGF (R&D Systems) were added to the medium, and finally, the cells were treated for five days with 10 ng/ml Oncostatin M (R&D Systems) and 0.1 μM Dexamethasone (Sigma). Throughout differentiation, hepatocyte growth medium (Promocell) was used as a base medium and cells were kept on Matrigel™ coated plates. […] hepatocytes were obtained for comparison studies (Celsis).
Mir-122 was transduced into the hES derived cells having hepatocyte morphology by a lentiviral vector pEZX-MR01 (Genecoepoeia). Approximately ˜5% of cells were transduced, as measured by GFP expression.
In this example, we performed a QRT PCR comparison of the gene expression levels of the mature hepatocytes produced from human embryonic stem cells according to the procedure outlined in Example 1 (ES hepatocyte expressing mir-122), the expression levels for the same proteins in human primary hepatocytes (Human hepatocyte), the expression levels for the same proteins in the fetal hepatocytes before transduction (ES hepatocyte), and the expression levels for the same proteins in HepG2 cells.

[3] = system: primary human hepatocytes; assay: Functional gene expression over time in primary human hepatocytes transduced with mir-122 (QPCR); type: cell-based
Description: FIGS. 6A through 6E are a bar graphs showing that lentivirus mediated DNA transfer to primary hepatocytes derived directly from liver tissue results in improved hepatic protein expression over time, as compared to control primary hepatocytes. Expression is shown for albumin (FIG. 6A), tyrosine aminotransferase (TAT) (FIG. 6B), and the CYP 450 enzymes CYP1A2 (FIG. 6C), CYP3A4 (FIG. 6D) and CYP7A1 (FIG. 6E). Expression was measured by quantitative PCR, and the reported values were normalized by GAPDH expression (RQ or relative quantity values, error bars representing standard error, RQ min and RQ max). Expression values are shown for each gene at the time the culture was established (0 day) and 9, 13 or 19 days later.
We cultured primary human hepatocytes (both control hepatocytes and hepatocytes into which vectors were transferred to express mir-122). Mir-122 was transduced into these primary hepatocytes using the lentiviral vector PEZX-MR01. GFP expressing cells were FACS sorted before RNA isolation and gene expression measurements using QPCR.

hepatitis B virus (HBV) = assay: HBV infection and replication in transduced hESC-derived hepatocytes (viral genome QPCR); type: cell-based
Description: FIG. 8 is a bar graph showing that HBV infects and replicates in human embryonic stem cell-derived hepatocytes. Number of copies of the HBV genome is reported for human embryonic stem cell-derived hepatocytes transduced with mir-122 infected with HBV (es heps with miRNA), positive control (human heps), and negative controls (hepg2). The copy numbers were calculated by QPCR. QPCR standard curve was prepared by serial dilution of LJ144, a construct that contains the whole viral genome. Both LJ144 and QPCR primers were disclosed by Watanabe et al. (PNAS 2007 104 (24)).
The copy numbers were calculated by QPCR. QPCR standard curve was prepared by serial dilution of LJ144, a construct that contains the whole viral genome. Both LJ144 and QPCR primers were disclosed by Watanabe et al. (PNAS 2007 104 (24)). […]
Infected cells were lysed at 6 days post-infection and treated with micrococcal nuclease. […] QPCR was performed to quantify the viral genomes present in the isolated DNA using the QPCR primers disclosed by Watanabe et al. (PNAS 2007 104 (24)). […]
Infectious HBV virions were concentrated from media of HepAD38 cells (Ladner et al. 1997) by PEG 8000 precipitation followed by centrifugation. […] Viral genome copy numbers were quantified by QPCR using primers previously published (see Watanabe et al. 2007). […]

hESC derived hepatocytes [4] = assay: QPCR of liver genes in hESC derived hepatocytes transduced with let-7c alone or with mir-122; type: cell-based, human; settings: GAPDH normalized, versus non-transduced hESC derived hepatocytes
Description: (§1) Expression of albumin was also measured in HepG2, a human hepatoma cell line (hepg2). Expression was measured by quantitative PCR. Indicated expression levels (on the Y axis) are GAPDH normalized gene expression values called RQ values (relative quantity values), with HepG2 expression assigned a relative value of 1. Error bars indicate RQ min and RQ max values calculated on 1 standard deviation. All RQ, RQ min and RQ max values were calculated with ViiA7 software on Applied Biosystems QPCR system.
as §1, with “CYP7A1” for “albumin”
as §1, with “CYP3A4” for “albumin”
as §1, with “AFP” for “albumin”
Expression of AFP was also measured in HepG2, a human hepatoma cell line (hepg2). Expression was measured by quantitative PCR.

**Q.** COc1ccc2[nH]c([S+]([O-])Cc3ncc(C)c(OC)c3C)nc2c1 (centres unmarked) [omeprazole] was tested. Which “induction of CYP1A2 upon drug challenge” value (CYP1A2; hESC-derived hepatocytes transduced with both mir-122 and let-7c, versus non-drug treated (ND) cells) did it give?
**A.** strongly induced; also recorded: induced the expression

**Q.** What about the “induction of CYP1A2 upon drug challenge” value (CYP1A2; hESC-derived hepatocytes with let-7c alone, no concurrent mir-122) of the same molecule?
**A.** did not elicit induction

**Q.** What about the “expression of CYP1A2 upon addition of drug” value (CYP1A2; mir-122 transduced hES cell-derived hepatocytes, 100 μM for 3 days) of the same molecule?
**A.** substantially up-regulated

**Q.** Which “efficiency of metabolism to 25-des acetyl rifampin” value (hESC derived hepatocytes [1]) does the source give for CO[C@H]1/C=C/O[C@@]2(C)Oc3c(C)c(O)c4c(O)c(c(/C=N/N5CCN(C)CC5)c(O)c4c3C2=O)NC(=O)/C(C)=C\C=C\[C@H](C)[C@H](O)[C@@H](C)[C@@H](O)[C@@H](C)[C@H](OC(C)=O)[C@@H]1C [rifampicin] here?
**A.** comparable to primary human hepatocytes

B1: mir-122: human microRNA mir-122 (pre-miRNA SEQ ID NO:1, mature SEQ ID NO:2); coding DNA transferred by lentiviral vector (nucleic acid, listed as Homo sapiens)
chain 1: CCUUAGCAGAGCUGUGGAGUGUGACAAUGGUGUUUGUGUCUAAACUAUCAAACGCCAUUAUCACACUAAAUAGCUACUGCUAGGC
chain 2: UGGAGUGUGACAAUGGUGUUUG
**Q.** With B1 as the molecule, how does the “expression of functional genes (quantitative PCR)” value ([2]; GFP positive FACS sorted hES cell-derived hepatocytes expressing miR-122) read?
**A.** significant up-regulation

**Q.** And the “expression of functional genes (alb, tat, CYP1A2, CYP7A1, CYP3A4, aat) compared with primary hepatocytes” value ([2]; QRT PCR, transduced mature hepatocytes versus human primary hepatocytes)?
**A.** equal or greater expression than in primary hepatocytes

**Q.** What about the transduction efficiency ([2]; lentiviral transduction, GFP positive cells) of the same molecule?
**A.** ~5%

**Q.** And the alpha-feto protein expression ([2]; mir-122 expressing hESC-derived hepatocytes)?
**A.** not down-regulated

**Q.** What about the “CYP gene expression compared with fresh hepatocytes (day 0)” value ([3]; mir-122 expressing primary hepatocytes in culture) of the same molecule?
**A.** equal or greater amount

**Q.** And the “mRNA levels of functional genes that decreased in control culture” value ([3]; primary hepatocytes cultured 9 days or more, overexpressing mir-122)?
**A.** regained their expression

**Q.** What about the “HBV genomes present per well” value (hepatitis B virus (HBV); mir-122 transduced hESC-derived hepatocytes, 6 days post-infection) of the same molecule?
**A.** presence of HBV genomes

B2: let-7c: human microRNA let-7c (pre-miRNA SEQ ID NO:3, mature SEQ ID NO:4); coding DNA transferred by lentiviral vector pEZX-MR03 (nucleic acid, listed as Homo sapiens)
chain 1: GCAUCCGGGUUGAGGUAGUAGGUUGUAUGGUUUAGAGUUACACCCUGGGAGUUAACUGUACAACCUUCUAGCUUUCCUUGGAGC
chain 2: UGAGGUAGUAGGUUGUAUGGUU
**Q.** With B2 as the molecule, how does the “AFP (alpha-feto protein) expression” value (hESC derived hepatocytes [4]) read?
**A.** down-regulated

**Q.** And the CYP1A2 expression (hESC derived hepatocytes [4])?
**A.** up-regulated

**Q.** What about the CYP3A4 expression (hESC derived hepatocytes [4]) of the same molecule?
**A.** up-regulated

**Q.** What about the CYP7A1 expression (hESC derived hepatocytes [4]) of the same molecule?
**A.** up-regulated

**Q.** What about the albumin expression (hESC derived hepatocytes [4]) of the same molecule?
**A.** up-regulated

**Q.** What about the “productive infection by HBV (relative number of copies of the HBV genome)” value (hepatitis B virus (HBV); transduced versus non-transduced hESC-derived hepatocytes, seventh day after infection) of the same molecule?
**A.** significantly down-regulated
